From patent US9120851B2, “Human antibodies to human angiopoietin-like protein 4” (Regeneron Pharmaceuticals, Inc., priority 2009, dated 2015)

T1: mANGPTL4(26-410)-His (Mus musculus, UniProt Q9Z1P8)
T1 sequence (Q9Z1P8 26-410): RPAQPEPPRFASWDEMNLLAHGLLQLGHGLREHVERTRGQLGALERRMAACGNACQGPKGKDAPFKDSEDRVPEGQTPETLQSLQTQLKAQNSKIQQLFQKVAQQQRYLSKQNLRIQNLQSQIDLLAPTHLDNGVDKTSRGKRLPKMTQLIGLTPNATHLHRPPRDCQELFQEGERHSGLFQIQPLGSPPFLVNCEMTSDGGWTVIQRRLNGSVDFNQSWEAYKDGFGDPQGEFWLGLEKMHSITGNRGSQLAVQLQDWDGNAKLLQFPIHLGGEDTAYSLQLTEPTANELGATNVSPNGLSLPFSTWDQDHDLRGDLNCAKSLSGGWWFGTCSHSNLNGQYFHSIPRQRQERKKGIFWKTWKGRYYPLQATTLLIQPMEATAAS

T2: hANGPTL3-His (Homo sapiens, UniProt Q9Y5C1)
T2 construct: His; purchased R&D Systems 3829-AN
T2 sequence (Q9Y5C1 17-460): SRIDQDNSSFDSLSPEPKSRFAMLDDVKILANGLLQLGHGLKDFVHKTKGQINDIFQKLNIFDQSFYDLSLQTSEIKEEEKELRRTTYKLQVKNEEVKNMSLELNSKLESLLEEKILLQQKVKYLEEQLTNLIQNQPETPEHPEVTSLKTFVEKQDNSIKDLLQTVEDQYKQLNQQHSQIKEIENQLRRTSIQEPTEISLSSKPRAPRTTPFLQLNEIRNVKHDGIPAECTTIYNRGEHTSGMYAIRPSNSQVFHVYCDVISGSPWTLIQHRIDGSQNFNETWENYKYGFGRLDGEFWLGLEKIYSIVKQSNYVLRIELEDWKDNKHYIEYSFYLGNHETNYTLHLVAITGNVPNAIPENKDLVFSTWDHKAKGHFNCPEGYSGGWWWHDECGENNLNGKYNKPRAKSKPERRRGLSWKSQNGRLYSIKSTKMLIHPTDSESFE

T3: hANGPTL4(26-406)-His (Homo sapiens, UniProt Q9BY76)
T3 construct: purchased R&D Systems
T3 sequence (Q9BY76 26-406): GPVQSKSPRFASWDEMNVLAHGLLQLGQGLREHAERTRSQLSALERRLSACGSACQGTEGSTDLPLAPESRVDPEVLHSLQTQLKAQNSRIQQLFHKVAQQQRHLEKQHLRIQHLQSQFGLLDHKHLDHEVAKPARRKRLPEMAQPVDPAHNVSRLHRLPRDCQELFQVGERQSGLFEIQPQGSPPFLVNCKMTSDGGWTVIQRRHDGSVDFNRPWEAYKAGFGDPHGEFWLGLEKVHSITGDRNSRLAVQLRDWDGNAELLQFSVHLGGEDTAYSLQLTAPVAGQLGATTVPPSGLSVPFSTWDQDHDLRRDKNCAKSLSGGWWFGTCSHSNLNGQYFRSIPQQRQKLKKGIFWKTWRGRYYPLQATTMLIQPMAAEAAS


Experiments:
[1] = molecular target: T1, mANGPTL4(26-410)-His; experiment: Cell-free LPL bioassay, inhibition of mANGPTL4-His; type: biochemical; details: constant 1 nM mANGPTL4(26-410)-His; antibody 0 to 100 nM; NB: Not blocking
[2] = molecular target: T2, hANGPTL3-His; experiment: BIACORE cross-reactivity, amine coupled hANGPTL3-His; type: binding; details: for Specific RU, hANGPTL3-His: chip surface 5228 RU, mAb injected at 3.125-50 μg/mL
Experimental: Possible cross-reactivity of the anti-hANGPTL4 antibodies to related proteins, i.e., hANGPTL3, human angiopoietin-like protein 5 (hANGPTL5) and mouse ANGPTL4 (mANGPTL4), was tested for the selected antibodies, i.e., H1H268P and H1H284P, using the BIACORE™ system. Briefly, anti-hANGPTL4 antibodies as well as negative controls, i.e., two monoclonal antibodies (Control a and Control b) that are non-binders to any ANGPTL proteins, were injected at 3.125 μg/mL-50 μg/mL over amine coupled chip surfaces of hANGPTL3-His (R&D Systems, cat #3829-AN) at 5228 RU, hANGPTL4-His (R&D Systems, cat #4487-AN) at 6247 RU, hANGPTL5-His (Abnova Corp., cat #H00253935-P01) at 5265 RU, and mANGPTL4-His [R26-S410 of mANGPTL4 (SEQ ID NO: 478) fused with an AS linker to a C-terminal 6-histidine tag] at 5233 RU, respectively. A polyclonal antibody specific for hANGPTL3 (R&D System, cat #BAF3485) was also tested.

[3] = molecular target: T3, hANGPTL4(26-406)-His; experiment: BIACORE, full mAb or Fab over amino-coupled hANGPTL4(26-406)-His; type: binding; details: for RU bound at 50 nM mAb or Fab: amino-coupled 450 RU
Experimental: Briefly, various concentrations (3.125 nM-100 nM) of anti-hANGPTL4 antibodies (i.e., H1H268 Fab, entire H1H268 mAb, H1H284 Fab, and entire H1H284 mAb) were injected over a low density anti-mFc captured hANGPTL4(26-148)-mFc (˜68±4 RU) surface, or the surface of amino-coupled hANGPTL4(26-406)-His (R&D Systems) (450 RU) or amino-coupled cynomolgus monkey N-terminal region (amino acid residues 1-130 of SEQ ID NO:490) expressed with an C-terminal hexa-histidine tag (MfANGPTL4(1-130)-His) (1,028 RU). Kinetic analysis was performed to measure ka and kd, and KD values and half-life of antigen/antibody complex dissociation were calculated. The results are shown in Table 4 (H1H268P) and Table 5 (H1H284P).

| IC50 [1] [nM] | binding to hANGPTL3-His (other related ANGPTL protein), in words [2] | Specific RU, hANGPTL3-His [2] [RU] | ka ([3]; pH 5.75, 25° C.) [M⁻¹ s⁻¹] | kd ([3]; pH 5.75, 25° C.) [s⁻¹] | RU bound at 50 nM mAb or Fab ([3]; pH 5.75, 25° C.) | ka ([3]; pH 7.2, 25° C.) [M⁻¹ s⁻¹] | kd ([3]; pH 7.2, 25° C.) [s⁻¹] | RU bound at 50 nM mAb or Fab ([3]; pH 7.2, 25° C.) | Molecule |
| --- | --- | --- | --- | --- | --- | --- | --- | --- | --- |
| > 100 | did not bind | −17 | 923000 | 0.000446 | 45 | 489000 | 0.0002 | 38 | H1H268P: anti-hANGPTL4 antibody, hIgG1 isotype, HCVR/LCVR SEQ ID NOs 42/44 (antibody, V domains shown) VH: QVQLQESGAGLLKPSETLSLTCTVYGGSFSIHHWTWIRHPPGKGLEWIGEINHRGSTNYNPSLKSRVTISIDTSKNQFSLKLSAVTAADTAVYYCARGLRFLDWLSSYFDYWGQGTLVTVSS VL: DIQMTQSPSSLSASVGDRVTITCRASQGISDYLAWYQQKPGKVPNLLIYAASALQSGVPSRFSGSGSGTDFTLTISSLQPEDVATYYCQNYNTAPLTFGGGTKVEIK |
| > 100 | did not bind | −6 | 1.93e+06 | 0.000272 | 101 | 850000 | 8.85e-05 | 77 | H1H284P: anti-hANGPTL4 antibody, hIgG1 isotype, HCVR/LCVR SEQ ID NOs 90/92 (antibody, V domains shown) VH: QVQLVESGGGVVQPGRSLRLSCAASGFTFSSYGMHWVRQAPGKGLEWMAVISFDGGNKNNADSVKGRFTISRDNSKNTLYLQMNSLRAEDTAVYYCAKEGDRSGHPYFYYYGLDVWGQGTTVTVS VL: DIQLTQSPSFLSASVGDRVTITCWASQGISSYLAWYQQKPGKAPKLLIYAASTLQSGVPSRFSGSGSETEFTLTISSLQPEDFATYYCQQLHSYPLTFGGGTKVEIK |
